Results reported in PMC12955871, “Structure‐Guided Engineering of a Promiscuous O‐Methyltransferase for a SAM Regeneration Biocatalysis Platform of Methylated Pharmaceuticals” (Advanced Science, 2025).

Legend:
Test in all cases: HPLC product formation, Michaelis-Menten fit
Assay type in all cases: biochemical, Selaginella moellendorffii
CC(=O)c1ccc(O)c(O)c1O = conditions: 1.6 mM SAM, pH 8.0, 37 °C, no added SAH, crystal structure is the SAH ternary complex
[1] = test system: O=c1c(O)c(-c2ccc(O)c(O)c2)oc2cc(O)cc(O)c12; conditions: 1.6 mM SAM, pH 8.0, 37 °C
O=c1ccc2cc3ccoc3c(O)c2o1 = conditions: 1.6 mM SAM, pH 8.0, 37 °C

SmOMT (Selaginella moellendorffii)
Km (CC(=O)c1ccc(O)c(O)c1O): 51.7 µM
Km [1]: 585.1 µM
Km (O=c1ccc2cc3ccoc3c(O)c2o1): 225.4 µM
